Measured values from US20220041738A1 (SAITAMA MEDICAL UNIVERSITY, published 2022).
Substitutions are numbered along the chain they refer to.

T1: Recombinant Human ALK2 Fc Chimera (Sino Biological Inc.) (human, UniProt Q04771 21-123)
T1 construct: Bought product; not shown: Fc of the bought chimera
T1 sequence: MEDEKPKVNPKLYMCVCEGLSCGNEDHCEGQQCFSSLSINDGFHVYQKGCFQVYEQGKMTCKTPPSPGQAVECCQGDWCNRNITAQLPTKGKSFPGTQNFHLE

T2: human ALK2 extracellular domain with C-terminal His tag (E. coli) (human, UniProt Q04771 21-123)
T2 construct: Expressed in E. coli SHuffle T7, purified to a single band of 12 kDa; also called ALK2-ECD; human ALK2-ECD; not shown: C-terminal His tag from pET-28b(+)
T2 sequence: T1 sequence

B1: humanized hA2-15A-H4/L6 (antibody, human IgG1)
heavy: not shown
light: DIVLTQSPDSLAVSLGERATINCRANQGVSLSRYNLMHWYQQKPGQKPKLLIYRSSNLAQGIPARFSGSGSGTDFTLTISSVQADDIAVYYCQQSRESPFTFGQGTKLELKRAVAAPSVFIFPPSDEQLKSGTASVVCLLNNFYPREAKVQWKVDNALQSGNSQESVTEQDSKDSTYSLSSTLTLSKADYEKHKVYACEVTHQGLSSPVTKSFNRGEC
notes: Human IgG1, kappa; also called humanized A2-15A antibody (IgG1)
B2: humanized hA2-27D-H2/L2 (antibody, human IgG1)
heavy: not shown
light: EIVLTQSPGTLSLSPGERATLSCLASSSVSYMTWYQQKPGQSPRLWIYGTSNLASGVPDRFSGSGSGTDFTLTISRLEPEDFAVYYCLHLTSYPPYTFGQGTKVEIKRAVAAPSVFIFPPSDEQLKSGTASVVCLLNNFYPREAKVQWKVDNALQSGNSQESVTEQDSKDSTYSLSSTLTLSKADYEKHKVYACEVTHQGLSSPVTKSFNRGEC
notes: Human IgG1, kappa; also called humanized A2-27D antibody (IgG1)
B3: humanized hA2-27D-H3/L4 (antibody, human IgG1)
heavy: not shown
light: B2 light with L11M, L13A, A19V, Q41A, F70Y, L77M, V84T, Q100A, V104L, I106L
notes: as for B2
B4: humanized hA2-15A-H4/L6 (IgG2) (antibody)
heavy: EVQLVESGGGLVQPGGSLRLSCAASGFTFSHYYMAWVRQAPGKGLEWVASITNSGGSINYRDSVKGRFTISRDNAKSTLYLQMNSLRAEDTATYYCTREGGENYGGYPPFAYWGQGTLVTVSSASTKGPSVFPLAPCSRSTSESTAALGCLVKDYFPEPVTVSWNSGALTSGVHTFPAVLQSSGLYSLSSVVTVPSSNFGTQTYTCNVDHKPSNTKVDKTVERKCCVECPPCPAPPVAGPSVFLFPPKPKDTLMISRTPEVTCVVVDVSHEDPEVQFNWYVDGVEVHNAKTKPREEQFNSTFRVVSVLTVVHQDWLNGKEYKCKVSNKGLPAPIEKTISKTKGQPREPQVYTLPPSREEMTKNQVSLTCLVKGFYPSDIAVEWESNGQPENNYKTTPPMLDSDGSFFLYSKLTVDKSRWQQGNVFSCSVMHEALHNHYTQKSLSLSPGK
light: B1 light
notes: Human IgG2, kappa; also called humanized A2-15A-H4/L6 (IgG2); humanized A2-15A antibody (IgG2)
B5: humanized hA2-27D-H2/L2 (IgG1 LALA) (antibody)
heavy: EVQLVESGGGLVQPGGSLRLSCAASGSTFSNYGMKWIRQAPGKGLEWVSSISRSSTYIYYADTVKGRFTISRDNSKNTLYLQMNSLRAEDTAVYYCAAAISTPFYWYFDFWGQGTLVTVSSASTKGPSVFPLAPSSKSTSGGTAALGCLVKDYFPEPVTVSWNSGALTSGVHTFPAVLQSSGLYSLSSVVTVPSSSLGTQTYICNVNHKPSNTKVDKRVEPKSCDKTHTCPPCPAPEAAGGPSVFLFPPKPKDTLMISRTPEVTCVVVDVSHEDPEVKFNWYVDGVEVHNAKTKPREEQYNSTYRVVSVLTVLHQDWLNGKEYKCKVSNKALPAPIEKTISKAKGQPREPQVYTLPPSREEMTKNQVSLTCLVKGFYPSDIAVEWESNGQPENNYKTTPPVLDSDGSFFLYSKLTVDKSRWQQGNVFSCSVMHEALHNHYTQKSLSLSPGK
light: B2 light
notes: also called humanized A2-27D-H2/L2 (IgG1 LALA); humanized A2-27D antibody (LALA)
B6: humanized hA2-27D-H3/L4 (IgG1 LALA) (antibody)
heavy: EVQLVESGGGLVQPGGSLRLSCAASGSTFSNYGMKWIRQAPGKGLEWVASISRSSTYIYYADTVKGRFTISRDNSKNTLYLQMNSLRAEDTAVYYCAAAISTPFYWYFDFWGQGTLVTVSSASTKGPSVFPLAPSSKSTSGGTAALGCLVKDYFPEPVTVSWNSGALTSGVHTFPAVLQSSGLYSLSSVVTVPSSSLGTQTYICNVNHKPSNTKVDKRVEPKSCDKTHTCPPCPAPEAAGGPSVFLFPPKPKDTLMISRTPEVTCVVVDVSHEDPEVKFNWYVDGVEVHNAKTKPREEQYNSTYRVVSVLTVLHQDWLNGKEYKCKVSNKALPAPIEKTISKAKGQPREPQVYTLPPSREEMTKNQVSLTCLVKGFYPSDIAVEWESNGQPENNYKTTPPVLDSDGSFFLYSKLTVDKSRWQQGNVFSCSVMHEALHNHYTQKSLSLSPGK
light: B2 light with L11M, L13A, A19V, Q41A, F70Y, L77M, V84T, Q100A, V104L, I106L
B7: humanized hA2-11E-H3/L3 (antibody, human IgG1, kappa, V domains shown)
VH: EVQLVESGGGLVQPGGSLRLSCAASGFTFSNYYMYWIRQAPGKGLEWVSSINTDGGSTYYADSVKGRFTISRDNSKNTVYLQMNSLRAEDTAVYYCAKSTPNIPLAYWGQGTLVTVSS
VL: DIQMTQSPSSLSASVGDRVTITCKASQNIYKYLNWFQQKPGKAPKLLIYYSNSLQTGIPSRFSGSGSGTDFTLTISSLQPEDFATYYCFQYSSGPTFGQGTKVEIKR
notes: Human IgG1, kappa; used as culture supernatant of FreeStyle 293F cells
B8: humanized hA2-11E-H3/L2 (antibody, human IgG1, kappa, V domains shown)
VH: B7 VH
VL: B7 VL with I58V
notes: as for B7
B9: humanized hA2-11E-H3/L4 (antibody, human IgG1, kappa, V domains shown)
VH: B7 VH
VL: B7 VL with T22S, K42E, T85I, Y87F, Q99P
notes: as for B7
B10: humanized hA2-11E-H4/L4 (antibody, human IgG1, kappa, V domains shown)
VH: B7 VH with V48I, A61P
VL: B7 VL with T22S, K42E, T85I, Y87F, Q99P
notes: as for B7
B11: humanized hA2-11E-H4/L3 (antibody, human IgG1, kappa, V domains shown)
VH: B7 VH with V48I, A61P
VL: B7 VL
notes: as for B7
B12: humanized hA2-11E-H4/L2 (antibody, human IgG1, kappa, V domains shown)
VH: B7 VH with V48I, A61P
VL: B7 VL with I58V
notes: as for B7
B13: humanized hA2-25C-H3/L2 (antibody, human IgG1, kappa, V domains shown)
VH: EVQLVESGGGLVQPGGSLRLSCAASGFTFSYYAMSWVRQAPGKGLEWVASISRGGDNTYYRDSVKGRFTTSRDNSKNTLYLQMNSLRAEDTAVYYCARLNYNNYFDYWGQGTLVTVSS
VL: DIQMTQSPSSLSASVGDRVTITCQASQDIGNWLSWYQQKPGKAPKLLIYGATSLADGVPSRFSGSRSGTDYTLTISSLQPEDFATYYCLQAYSAPFTFGQGTKVEIKR
notes: as for B7
B14: humanized hA2-25C-H4/L2 (antibody, human IgG1, kappa, V domains shown)
VH: B13 VH with V93T, T112V
VL: B13 VL
notes: as for B7
B15: humanized hA2-25C-H3/L1 (antibody, human IgG1, kappa, V domains shown)
VH: B13 VH
VL: B13 VL with R66G, Y71F
notes: as for B7
B16: humanized hA2-25C-H4/L1 (antibody, human IgG1, kappa, V domains shown)
VH: B13 VH with V93T, T112V
VL: B13 VL with R66G, Y71F
notes: as for B7
B17: humanized hA2-25C-H3/L3 (antibody, human IgG1, kappa, V domains shown)
VH: B13 VH
VL: B13 VL with A43S, D70Q, Q100S
notes: as for B7
B18: humanized hA2-25C-H4/L3 (antibody, human IgG1, kappa, V domains shown)
VH: B13 VH with V93T, T112V
VL: B13 VL with A43S, D70Q, Q100S
notes: as for B7

Target: T1, Recombinant Human ALK2 Fc Chimera (Sino …)
Test: SPR, Biacore T200; antigen immobilised on CM5 chip, antibody as analyte; bivalent binding model
Protocol: The dissociation constants of humanized hA2-15A-H4/L6, humanized hA2-27D-H2/L2, and humanized hA2-27D-H3/L4 prepared in Example 8)-5 for the antigen (Recombinant Human ALK2 Fc Chimera, Sino Biological Inc.) were measured in Biacore T200 (GE Healthcare Bio-Sciences Corp.) by using the antigen immobilized as a ligand and each antibody as an analyte. The antigen was added at 1.25 μg/mL for 60 seconds and immobilized onto a sensor chip CM5 (GE Healthcare Bio-Sciences Corp.). The running buffer used was HBS-EP+(10 mM HEPES (pH 7.4), 0.15 M NaCl, 3 mM EDTA, and 0.05% Surfactant P20). Serially diluted solutions (0.2 to 50 nM) of the antibody were added onto the antigen-immobilized chip at a flow rate of 30 μl/min for 300 seconds. Subsequently, the dissociation phase was monitored for 1800 seconds. A 10 mM glycine/hydrochloric acid solution (pH 1.5) was added thereto as a regenerating solution at a flow rate of 10 μl/min for 30 seconds twice. The data was analyzed using bivalent binding models of analytical software (BIAevaluation software, version 1.0) to calculate an association rate constant ka, a dissociation rate constant kd, and a dissociation constant (KD; KD=kd/ka).

Binder	Kd
B1	4.3 nM
B2	5.7 nM
B3	4.3 nM

Target: T2, human ALK2 extracellular domain with …
Test: SPR, Biacore T200; antibody captured by anti-human IgG (Fc), antigen as analyte; 1:1 binding model
Protocol: The dissociation constants of humanized hA2-15A-H4/L6 (IgG2) prepared in Example 11)-4, and humanized hA2-27D-H2/L2 (IgG1 LALA) and humanized hA2-27D-H3/L4 (IgG1 LALA) prepared in Example 12)-4 for the antigen (human ALK2 extracellular domain prepared in Example 14)-1) were measured using Biacore T200 (GE Healthcare Bio-Sciences Corp., Japan) by the capture method which involves capturing each antibody as a ligand onto an immobilized anti-human IgG (Fc) antibody and assaying the antigen as an analyte. Approximately 1000 RU of the anti-human IgG (Fc) antibody (Human Antibody Capture kit, GE Healthcare Bio-Sciences Corp.) was covalently bound to a sensor chip CM5 (GE Healthcare Bio-Sciences Corp.) by the amine coupling method. Similarly, this antibody was immobilized onto a reference cell. The running buffer used was HBS-EP+(10 mM HEPES (pH 7.4), 0.15 M NaCl, 3 mM EDTA, and 0.05% Surfactant P20). The antibody was added onto the anti-human IgG (Fc) antibody-immobilized chip for approximately 1 minute. Then, serially diluted solutions (0.78 to 200 nM) of the antigen were added thereto at a flow rate of 30 μl/min for 300 seconds. Subsequently, the dissociation phase was monitored for 600 seconds. A 3 M magnesium chloride solution was added thereto as a regenerating solution at a flow rate of 10 μl/min for 30 seconds. The data was analyzed using 1:1 binding models of analytical software (BIAevaluation software, version 1.0) to calculate an association rate constant ka, a dissociation rate constant kd, and a dissociation constant (KD; KD=kd/ka).

Binder	Kd
B4	17.4 nM
B5	13.6 nM
B6	13.3 nM

Target: T2, human ALK2 extracellular domain with …
Test: SPR, Biacore T200; antibody captured from culture supernatant by anti-human IgG (Fc), antigen as analyte; 1:1 binding model
Protocol: The dissociation constants of the humanized A2-11E antibodies (IgG1) and the humanized A2-25C antibodies (IgG1) prepared in Example 18)-5 for the antigen (human ALK2 extracellular domain prepared in Example 14)-1) were measured using Biacore T200 (GE Healthcare Bio-Sciences Corp.) by the capture method which involves capturing each antibody as a ligand onto an immobilized anti-human IgG (Fc) antibody and assaying the antigen as an analyte. Approximately 1000 RU of the anti-human IgG (Fc) antibody (Human Antibody Capture kit, GE Healthcare Bio-Sciences Corp.) was covalently bound to a sensor chip CM5 (GE Healthcare Bio-Sciences Corp.) by the amine coupling method. Similarly, this antibody was immobilized onto a reference cell. The running buffer used was HBS-EP+(10 mM HEPES (pH 7.4), 0.15 M NaCl, 3 mM EDTA, and 0.05% Surfactant P20). The culture supernatant containing the antibody was added onto the anti-human IgG (Fc) antibody-immobilized chip for approximately 1 minute. Then, serially diluted solutions (0.78 to 200 nM) of the antigen were added thereto at a flow rate of 30 μl/min for 300 seconds. Subsequently, the dissociation phase was monitored for 600 seconds. 3 M MgCl₂ was added thereto as a regenerating solution at a flow rate of 10 μl/min for 30 seconds. The data was analyzed using 1:1 binding models of analytical software (BIAevaluation software, version 1.0) to calculate an association rate constant ka, a dissociation rate constant kd, and a dissociation constant (KD; KD=kd/ka).

Binder	Kd
B7	47.4 nM
B8	63.1 nM
B9	31.3 nM
B10	11.1 nM
B11	18.5 nM
B12	19.9 nM
B13	53.3 nM
B14	56.7 nM
B15	116 nM
B16	81.8 nM
B17	64.4 nM
B18	27.9 nM
